{"source": "the RNAGym collection of RNA variant scans (doi:10.1073/pnas.2313332121)", "parents": {"B1": {"name": "TPR 5TU (parent)", "chain": "GGAUCUUCUCGAUCUAACAAAAAAGACAAAUCUGCCACAAAGCUUGAGAGCAUCUUCGGAUGCAGAGGCGGCAGCCUUCGGUGGCGCGAUAGCGCCAACGUUCUCAACUAUGACACGCAAAACGCGUGCUCCGUUGAAUGGAGUUUAUCAUG"}}, "note": "Variants at the floor of the assay were thinned out."}
{"variants_of": "B1", "test": "polymerase ribozyme fitness, log enrichment relative to wild type (log ratio); higher = more active; in vitro selection for triplet polymerase activity", "how_it_was_run": "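Genotype fitness is the logarithm of its enrichment divided by wild-type enrichment, using inverse-variance-weighted averages of replicates. That logarithm is base 2. Enrichment was measured by Illumina sequencing of input and output libraries from one triplicate in vitro selection round, with frozen incubation at −7 °C, on PCR-built, transcribed mutant libraries of each subunit of a heterodimeric triplet polymerase ribozyme, retaining genotypes with ≥10 input reads and ≥1 read per output.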"}
{"variant": "A3U U7A C8A C63U U90G", "polymerase ribozyme fitness (log ratio)": "≤ -4.2"}
{"variant": "A73G C96U A119U", "polymerase ribozyme fitness (log ratio)": -0.341}
{"variant": "U109G A142C", "polymerase ribozyme fitness (log ratio)": -2.18}
{"variant": "U102G A121C", "polymerase ribozyme fitness (log ratio)": -2.85}
{"variant": "G59U C96A", "polymerase ribozyme fitness (log ratio)": -0.703}
{"variant": "U55A G59A U148G", "polymerase ribozyme fitness (log ratio)": -2.52}
{"variant": "A17C U82A C85A C93U", "polymerase ribozyme fitness (log ratio)": "≤ -4.2"}
{"variant": "C14A C27G A91C A115G", "polymerase ribozyme fitness (log ratio)": "≤ -4.2"}
{"variant": "C18A U33A U56A G88A C114U U130A", "polymerase ribozyme fitness (log ratio)": "≤ -4.2"}
{"variant": "A17G C35A A40C G67U C96A C129G", "polymerase ribozyme fitness (log ratio)": "≤ -4.2"}
{"variant": "C85U U146G", "polymerase ribozyme fitness (log ratio)": -0.713}
{"variant": "C5G U55A C93U C118A", "polymerase ribozyme fitness (log ratio)": -3.5}
{"variant": "C10U C54A G88U A115G", "polymerase ribozyme fitness (log ratio)": "≤ -4.2"}
{"variant": "A49C A89U A138U", "polymerase ribozyme fitness (log ratio)": "≤ -4.2"}
{"variant": "A39C G62A A66U U134G G143A", "polymerase ribozyme fitness (log ratio)": "≤ -4.2"}
{"variant": "G25U A52C U90C C95U U111A U135A U151G", "polymerase ribozyme fitness (log ratio)": "≤ -4.2"}
{"variant": "U33C G81U C93G G143U", "polymerase ribozyme fitness (log ratio)": -4.06}
{"variant": "A47G U56A U134G", "polymerase ribozyme fitness (log ratio)": -2.17}
{"variant": "A17U A37G U82A U144A", "polymerase ribozyme fitness (log ratio)": -2.56}
{"variant": "C18A A20U C27G A30U U56G A64U G84U U102C G112U G124C", "polymerase ribozyme fitness (log ratio)": "≤ -4.2"}
{"variant": "U13G A26G U31G C51G G88C", "polymerase ribozyme fitness (log ratio)": "≤ -4.2"}
{"variant": "A16G C57A G86C G124U", "polymerase ribozyme fitness (log ratio)": -3.24}
{"variant": "C99G C149U", "polymerase ribozyme fitness (log ratio)": -1.74}
{"variant": "C5G U6G C38U A41U A47U G86A A91C", "polymerase ribozyme fitness (log ratio)": "≤ -4.2"}
{"variant": "G81C G141C", "polymerase ribozyme fitness (log ratio)": -0.0339}
{"variant": "A49G G50A U55A U146C", "polymerase ribozyme fitness (log ratio)": -1.98}
{"variant": "C32G A37C C85G", "polymerase ribozyme fitness (log ratio)": "≤ -4.2"}
{"variant": "A17U G83A G86U A142C", "polymerase ribozyme fitness (log ratio)": "≤ -4.2"}
{"variant": "C14G A23C C32U C96U", "polymerase ribozyme fitness (log ratio)": -4.1}
{"variant": "C18U A21C U55A", "polymerase ribozyme fitness (log ratio)": -0.649}
{"variant": "C79A U101G", "polymerase ribozyme fitness (log ratio)": "≤ -4.2"}
{"variant": "G83A C85U A115U C116U", "polymerase ribozyme fitness (log ratio)": -2.68}
{"variant": "A16C U101G U127A", "polymerase ribozyme fitness (log ratio)": -3.71}
{"variant": "G84A C95G", "polymerase ribozyme fitness (log ratio)": -0.784}
{"variant": "A52U G67U C85A C125G", "polymerase ribozyme fitness (log ratio)": "≤ -4.2"}
{"variant": "G70A A122U", "polymerase ribozyme fitness (log ratio)": -3.6}
{"variant": "A39U C54U C96A", "polymerase ribozyme fitness (log ratio)": -2.72}
{"variant": "A30G C54U G80U A91C C103U", "polymerase ribozyme fitness (log ratio)": "≤ -4.2"}
{"variant": "U13A G84A G136U", "polymerase ribozyme fitness (log ratio)": -2.59}
{"variant": "A12U G48A C96A", "polymerase ribozyme fitness (log ratio)": -2.05}
{"variant": "A12C A22G C32G C51G A60U U77A G81C G128A U148C", "polymerase ribozyme fitness (log ratio)": "≤ -4.2"}
{"variant": "C57U G86A", "polymerase ribozyme fitness (log ratio)": -1.16}
{"variant": "C18G G83C C85U C96G A115C C116G U134A", "polymerase ribozyme fitness (log ratio)": "≤ -4.2"}
{"variant": "A39G A73G U109A A119U", "polymerase ribozyme fitness (log ratio)": -3.91}
{"variant": "A39G U53A G58C C72G C95G C103G", "polymerase ribozyme fitness (log ratio)": "≤ -4.2"}
{"variant": "C85U U134G", "polymerase ribozyme fitness (log ratio)": -2.89}
{"variant": "G92U C116U", "polymerase ribozyme fitness (log ratio)": 0.0946}
{"variant": "G71U A91U A122G G143U U145C", "polymerase ribozyme fitness (log ratio)": "≤ -4.2"}
{"variant": "U4C A12U C57G C85U A98G G128U", "polymerase ribozyme fitness (log ratio)": "≤ -4.2"}
{"variant": "C5G C10U A49G U56A G74C C85U U90G C93U G100U A115C G141A", "polymerase ribozyme fitness (log ratio)": "≤ -4.2"}
{"variant": "C54U C76U C93G A150G", "polymerase ribozyme fitness (log ratio)": -4.08}
{"variant": "C57G G68A G84U G126C U135G U144A", "polymerase ribozyme fitness (log ratio)": "≤ -4.2"}
{"variant": "U146G A150G G152A", "polymerase ribozyme fitness (log ratio)": -1.84}
{"variant": "A52G C57G A73U G84A", "polymerase ribozyme fitness (log ratio)": -3.44}
{"variant": "A29U U55G C57U G67C A98G", "polymerase ribozyme fitness (log ratio)": "≤ -4.2"}
{"variant": "C93U U144C", "polymerase ribozyme fitness (log ratio)": -1.07}
{"variant": "A12G G83U G92U A142G", "polymerase ribozyme fitness (log ratio)": -2.93}
{"variant": "A23U C93A A97G A113G G124U", "polymerase ribozyme fitness (log ratio)": "≤ -4.2"}
{"variant": "A30G C95U", "polymerase ribozyme fitness (log ratio)": -3.14}
{"variant": "A30C A64U G65A G70A G84U A91C C103U G136C C149G", "polymerase ribozyme fitness (log ratio)": "≤ -4.2"}
{"variant": "U53A C75G C76U U82A C95U G128A", "polymerase ribozyme fitness (log ratio)": "≤ -4.2"}
{"variant": "C14G C85U C96U A113C A122U G143A", "polymerase ribozyme fitness (log ratio)": "≤ -4.2"}
{"variant": "G94A G141A", "polymerase ribozyme fitness (log ratio)": 0.172}
{"variant": "G126A A150G", "polymerase ribozyme fitness (log ratio)": -2.66}
{"variant": "A12C A17G U31G U44A C93U C99U A122C U134A A142G", "polymerase ribozyme fitness (log ratio)": "≤ -4.2"}
{"variant": "A52C A113C", "polymerase ribozyme fitness (log ratio)": -3.36}
{"variant": "U15C C54A G59A G84U A106G U146G", "polymerase ribozyme fitness (log ratio)": -2.98}
{"variant": "A22U A41U", "polymerase ribozyme fitness (log ratio)": 0.0369}
{"variant": "A66C G70A G71A G100U G143A U148G", "polymerase ribozyme fitness (log ratio)": "≤ -4.2"}
{"variant": "C8A A49G C76A C93A C103G C105A U127C", "polymerase ribozyme fitness (log ratio)": "≤ -4.2"}
{"variant": "C38A C118U A120C G141A", "polymerase ribozyme fitness (log ratio)": -0.525}
{"variant": "C32U C51A A52U C96G G136U", "polymerase ribozyme fitness (log ratio)": "≤ -4.2"}
{"variant": "G84U C103U A137C", "polymerase ribozyme fitness (log ratio)": "≤ -4.2"}
{"variant": "G84U U101G U134G", "polymerase ribozyme fitness (log ratio)": -3.87}
{"variant": "A52C U55G", "polymerase ribozyme fitness (log ratio)": -3.84}
{"variant": "A19U G94A", "polymerase ribozyme fitness (log ratio)": -1}
{"variant": "A26G A40C C63U G80U G92A G126U A142U", "polymerase ribozyme fitness (log ratio)": "≤ -4.2"}
{"variant": "G50A C76U C96A A121G", "polymerase ribozyme fitness (log ratio)": -1.1}
{"variant": "A91C C96A A120U A122C G143U", "polymerase ribozyme fitness (log ratio)": -4.07}
{"variant": "C5U U13C C95U U146G", "polymerase ribozyme fitness (log ratio)": -1.13}
{"variant": "C93G A150G", "polymerase ribozyme fitness (log ratio)": -4.14}
{"variant": "G88C A89C C95U", "polymerase ribozyme fitness (log ratio)": "≤ -4.2"}
{"variant": "A24G C35A G58A C93G C99A", "polymerase ribozyme fitness (log ratio)": "≤ -4.2"}
{"variant": "U9G A12C A16U U31A G62A G71A G80C C87U C108U", "polymerase ribozyme fitness (log ratio)": "≤ -4.2"}
